Source: the DeepSol protein solubility set

Test: soluble on expression in E. coli; label from the status in PepcDB or PDB records

Sequence	soluble on expression in E. coli
MIYSIPFLFFIIVSCSNSSTEMVAKSKYDAKIAEYKELNEQQAAVIEDNLEKSKIINNVVTELNQIAGNTHSLRVNVEHGVGELSQAEEINQKLQTLKKRLSAVEGKRSDGSKNLLATMDKLKSIIEQKEIEINNLKQEIANQQQTIANQKNTIASQQVTIDAQSQELMNKQQEMWYKLGTELHSVVEELPKVKGRKDKRNIKNTRYYILNKAKECFEHAAQLGHSLAGSKARQVEGEMSRL	not soluble
MTYTTAKAAEKIGISAHTLRFYDKEGLLPNIGRDEYGNRCFTDNDLQWLGLLQCLKNTGMSLKDIKRFAECTVIGDDTIEERLSLFENQIENVKCQIAELKRYLDLLEYKLAFYQKAKALGSVKAVNLPQIPETA	soluble
MSRIEFIRKEEKKYHDFCYENYKLFEEGSWLYKPVKTVIELLPILDERTSPKVLDLGSGVGRNSIPIAKEIKNKNGKVICVDLLDSALDKLKLYSKEYEVEEVIETMKADIGHYDIAKNEYDLIVAVSTLEHVESENVFEKVIKKMASGTKNEGINCIIVNSEVEEIDISTNEKLDAMMEVNMKTKDMLSKLRQSYNGWEIVNQLVKPLEYKIVRDERDVLLKTNAITFAVKKKLEHHHHHH	not soluble
MAHHHHHHMRARRSCKFAEYLSTYAILEHIGIHPTTLIEKRDAAVGVGVYVRDACDAGTALLAVPSKRFCTTSVLSRVGLKTSFCSPWRADSEVPSTAFAGPTCDVQGGILSFLTGSTQWPELAWRLALEQHRSVSPLWGWLQSLPSVEELADRRDVAERQCRVHHTMLLPYYLKGRQRIREETVAAYSQLRAQNILPCFDRFAWAVDVVLSRGLLLPTAWPTAGGVFTNSTTDGEHEEEDSDPLPHTSLECGVVPFLDLVNAPDDVGRVVNADIEIATSLETLPKFLTDELAADATARGRGGDDLAEVKRLLETHYYLCLTLRKPLRASEEVILEWQVPVLTTEVLTAAEDAIVSRFLKYMF	not soluble
PRVVFIDEQSGEYAVDAQDGQSLMEVATQNGVPGIVAECGGSCVCATCRIEIEDAWVEIVGEANPDENDLLQSTGEPMTAGTRLSCQVFIDPSMDGLIVRVPLPA	soluble
MGSDKIHHHHHHMACGEFSGDDAAMKQTSFATAEYAGKKRQTRRERFLAEMNVVVPWARLEALIEPHYPKSGKVGRPPIGVPRMLRMYFLQQWYTLADEALEDALYDSQAMREFIGIDLGRENVPDATTLLKFRRLLEQHDLTSAILAEVNAHLTERGLLMRQGTVVDATIIAAPSSTKNEDGKRDPEMHQTKKGNQWHFGMKMHSGVDAESGLIHSVVCTAANEADVAHAHELLHGQESQVHGDSGYTGIQRRDEITTAQEEGRLRQDMDWRIAMKRGQLKAMPEGPAKAMHEWFERRKAQVRAIVEHPFHVIKNLFGYRKVSYRGISKNEARAKAHAALANLYIARRRLLAQGLSASAA	not soluble
MGSDKIHHHHHHMTKLHYIRNKDCNMKEGLKLNKGKLIAQGKTSEVFEYGQDKILKLFRKDLPEKNIENEYEVSFNLSKKMKLVPKVYDLVEVDDRKGIIYEKVNGTTMMEVISSKPWKVKKEAQRLAELHEAIQKPVDFELPDYKTTLKENISKTELLEEDIKKRLYDYIDELKDDDLLCHGDFHPDNVLITEEGEVIIDWMTASKGSRIADIARTSVMLKFGASPVKRSAEKKIIKFVRNRFYSGYIKHYMKITGINKEQIEEWELPIAAARLNEWLPKSEKVDLLKFIDMKMK	not soluble
MSQLLLNLEGKTKIKAIARKNDLCERKSSNLHHFCVEFHNNYEFLEIGLSEARSLASISDKNVLNSNRKAENYQKKWKNFEKESILKLNSIMEKISSHSQPSHHHTNASITLPYDATIQKIAEKEKNLSKLLKELSIVDSSLKEEKASFEKTQSALLKEKGKIEKDKLMLREEAQKQASMNAEVQKKELESQERLSVLNKQFMEENEKKVKLEQEELDSKNAYNDCLQLNIPNAESQMITDQLATLDEFYSDLNNNSSNEIMAEIPDFEEIIDLFNQFKSSMESQKDILNTLAGLEEQLGDHQLEIKSVRKDINKLKGLQGKQSFYKEELKLKKSALEEIQRKIDYDQDVLNSLKVVEKAAKPDDYLRPRNSRKESVFRKLPIPERSMQHDSDTLDTRKNSKTMLKNESTRHSNPGIRLLKVPNRDSDEESENSFDDGTTQDESGVNAFFGQLSDEKEESPTAVEFSMAAHLTEFSQRQAAAAAKMNMKTPEKKVVEIESDEDDDLDSSIIAPNRAKSKDDRKSDDSDDDLNDEEGDADQSIWGSDD	not soluble
MGSDKIHHHHHHMINELKKTKSRSEIKREQILHSAIELFCVQGFPNTSMDEVAKLAGVSKQTVYAHFGSKDDLFVAAIESRCIAHQLTGDLLFDPKHPEVSIMRFSQQFGEMIVSHETMAVFKTCVAQAESHPELPRLFFNAGPKHVLGLLSGFLQLVDKQGGYHFPKPHDSAIRLCLMLFGELKLRLELGLEVEELRLSRDAYIEETAQMFLRAHRV	not soluble
MKLRSVTYALFIAGLAAFSTSSLAAQSLRFGYETSQTDSQHIAAKKFNDLLQERTKGELKLKLFPDSTLGNAQAMISGVRGGTIDMEMSGSNNFAGLSPVMNLLDVPFLFRDTAHAHKTLDGKVGDDLKASLEGKGLKVLAYWENGWRDVTNSRAPVKTPADLKGLKIRTNNSPMNIAAFKVFGANPIPMPFAEVYTGLETRTIDAQEHPINVVWSAKFFEVQKFLSLTHHAYSPLLVVINKAKFDGLSPEFQQALVSSAQEAGNYQRKLVAEDQQKIIDGMKEAGVEVITDLDRKAFSDALGNQVRDMFVKDVPQGADLLKAVDEVQ	not soluble
MIHQFHSEQQFRSLGMCVVSTFGSGRACTFIGALYAIHQLNNGVEPNIFEIMKTIKQQRPGAIESFPQYSGVYAIVLDYISRKRGGKSDPVNKYINRFLADLTEILPACSTLPVMNPSTELH	not soluble
MNVLKEVYATIEKRIEEKPEGSYVAKLTTDDKKTAVNKICEKVGEEAAEVIIAAKDNDKAEIIYESADLIFHTMVLLAKSGITYEELSEEFKKRMKLEHHHHHH	not soluble
GQQKNMENKTLNENIPEMIISLEKEALASTDPMAFVELSDTDVIYFDPSLETKIEGLEQLRTYYKGMQLPPADHFDMIRPVVQVAQNIAVLTFNLDSYLSDKVIKWNCTEVYRRNPDNQWKIIQTHWSYVKPLD	soluble
MGSDKIHHHHHHMLTHSTNPRGGVVHAMQLSEALTALGHAVTLHAPDPKGTGFFRSPACGAACFPVPPALADMTALVEQRIADYIGHFEQADNRDFDVFHAHDGISGNALATLKSRGLIPSFVRTIHHIDQFEDPRLMVLQDRSIQRADAFLAVSAAWQAILRDSYGVDAKVVGNGVDNRRFSPAWSGEQTALRDRIGLHAGAVFLSIGGIEARKNTLGILDAFRQLRAVKPDAQLVIAGGVSLLDHRDYQEEFQSHLRALRDDAAAVHIIGAVSDDDMPNLYRLADALVFPSLKEGFGLVVLEAMASGVPAIVPSIAPFIDYLSGDDALWCDPLHSASIAEAMALALVPEIRERIIPRGLEVASRFTWRRVAEAHLSTYATLKEAAHA	not soluble
MSLKIYLFKPYDVIGFGGLKNFSAGETHIQKSIFPPPIMRFFHIFNSVYGVFLYKDGNLFLPVPSDCLVKRKEESGKAKISPLEFPPLIRGDLEAYERANGFISFSDLMNKYAKNIDGFKIYLLEEFLKKESRVGITMDKERRVVRSIKEINRKEEKGLLYSQDFFRFNDGVKLAVLGEINKDIVISGKQYFRMGGEGKIVSFKHTEHINSFLEGKIKIKNGNYYKFYCLTHAYINNGIIESKIQTICIEGINFEVEWLYNGGVEYVSGYNKPFLEMLRPGSVLILKAKNEGEIQRLNQISTNVPISNIKNFLNRGWNSGIIVEGVKEGHHHHHH	soluble
QMNYEEVIKKYRGEENFDHAAYDWRLHSGVTPVKDQKNCGSCWAFSSIGSVESQYAIRKNKLITLSEQELVDCSFKNYGCNGGLINNAFEDMIELGGICPDGDYPYVSDAPNLCNIDRCTEKYGIKNYLSVPDNKLKEALRFLGPISISVAVSDDFAFYKEGIFDGECGDQLNHAVMLVGFGMKEIVNPLTKKGEKHYYYIIKNSWGQQWGERGFINIETDESGLMRKCGLGTDAFIPLIE	soluble
YSLAVGGSSPFAEELMQELALTTEQLQVRAQEVLTEILNDYSSLRVKTIDSFFQEVMRAFSHELGLPGGFRIEMEQKAVLEQAVVRLLHSLGEKDTSDVENWIRRLAEDLIEEGRGHNIRREIVSLGDELFKEQLLLLSEEGKLPTKAAIHRYQTEMNKLMEGFEQRRLSIARRAEEIVATAGISFYDFKGGTKGGILEFAKVLKGGEVKPPTKTFMAMAEGDPETTLYAKTTPATTQAAILSAYQSGLKECLTEMATLYLGREWQEYSTAKQSLPFLNRLGIISDLWRQIEGIRQEENKMLISDAPSLLHRIIDGSETPFVYDK	not soluble
MAIEIKLETPRQEAVLRLIDLSNAYMASLYPAESNHLVDIGALEKDNVSFFVARHDGRVVGCGALVEAGDGTAEVKRMFVDPEARGLRIGKLIMDTLVARGTELGLSAIRLETGISQPEAIGLYRKEGFVEIEAFAPYKPDPLSLFMERAL	not soluble
MGHHHHHHSHMLLPRGLDIKQEELGDLVDKEMAATSAAIETATARIEEMLSKSRAGDTGVKLEVNERILGCCTSLMQAIQVLIVASKDLQREIVESGRGTASPKEFYAKNSRWTEGLISASKAVGWGATVMVDAADLVVQGRGKFEELMVCSHEIAASTAQLVAASKVKADKDSPNLAQLQQASRGVNQATAGVVASTISGKSQIEETDNMDFSSMTLTQI	soluble
MSLTETTDLYRMSSSLRVVALAETLQRARAFASRLGIIRVTDTTRLDCIGIPVFASIRPTALPGSLCVNAGKGLRPEEARVGAYMEAIEFAMAEYGRSAVDYVMATPRDVLDGRSRPEAILDFCPVFGAQITLDDPMPCVEAEELLSSTRCLVPAELVYVPAPAVEGVQRHFGSSSNGLCSGNSVWEASVHGLAEVIERDIQSFCFLHDTSVLVDIASLPPQPAALARQIGEAGFTLRLRYVENIFELPYFAAYVMEPDPVDAVYICGGFGCHPFKEIAAVRAICEAVQGRLSFIHGGRDDLIERHRLLAQMNGEQELAFSRKLAAKVSRPEGMIGFEAIGDRSGEVCDLSSAWEVLVAAIRKVGIAHVCRVVFTQPHDPVQVLKLIVPRLEMFDRSTRRIGPRLRDHARFHEGHHHHHH	not soluble
MAGYDVVVVGGGHAGLEAAWAAAALGVRVALVTVNPDRIGMMPCNPAVGGPGKSQLVAEVVALGGLMGRAADAAAIHTRVLNRSKGPAVQSLRVQVDRDLYALKAQEILAERPVEVLRGEVAALWVEGGRLLGVRTVDGRTLPAKAVVVAGGTFLSGVVWYGRKSRPAGRQGEPPARFLSQSLKAVGHTLRRFKTGTPPRIRADSVDFGRLEVVPPEVPPGSFTGNPGPHAARLPTWQTRTTERTHRLILENLHLSPLYAGDIQGIGPRYCPSIEDKVVRFADKESHLLFVEPDGLSTTEVYLQGFSSSLPPELQEEMVRSLPGFERAVIQRYAYAVEYDSLDPTELTRGLQSRFLPGLFSAGQVNGTSGYEEAAAQGLLAGLNAARFALGLPEVHLPRESGYIGVLVDDLVGRGTDEPYRMMTSRVELRLLCRADNADERLTPLAVAWGLRPREDLERVEAKYRRVAAELRRLEALRVEGVSGLQWLRRPENTYRALAERFPPPEPLSPEEAYQVEVRAKYAGYIERQERLREKMRDLEAFRIPEGMDFPKVPGLSREAAEKLSRHRPKSLAEAARIPGVRDSDLTALAVHLRRGA	not soluble
